Data published in publication PMC8536012, “Selection of Specific Nanobodies against Lupine Allergen Lup an 1 for Immunoassay Development” (Foods, 2021).
Values belong to the binder of their own block, whether it stands above or below them.

Target: T1, Lup an 1 (Lupinus angustifolius (by the …, UniProt F5B8W3))
T1 construct: Lup an 1, lupin β-conglutin, a 7S seed storage globulin of the vicilin-like proteins; found by LC-MS/MS of the ~55 kDa band immunocaptured from crude lupine extract; UniProt F5B8W3.1; size distribution printed as 55 to 61 kDa; Never purified: it stood in a crude lupine protein extract in every experiment; Seen as a band of ~55 kDa; also called lupin β-conglutin; lupine allergen Lup an 1; source: …
Assay: ELISA; crude lupine extract (50 μg/mL) coated overnight at 4 °C; Nbs serially diluted in PBS, 1 h at room temperature; detected by mouse anti-His IgG and HRP goat anti-mouse IgG; apparent affinity = concentration at half of the maximum signal
Conditions: one partner purified

T1 sequence (F5B8W3 31-637): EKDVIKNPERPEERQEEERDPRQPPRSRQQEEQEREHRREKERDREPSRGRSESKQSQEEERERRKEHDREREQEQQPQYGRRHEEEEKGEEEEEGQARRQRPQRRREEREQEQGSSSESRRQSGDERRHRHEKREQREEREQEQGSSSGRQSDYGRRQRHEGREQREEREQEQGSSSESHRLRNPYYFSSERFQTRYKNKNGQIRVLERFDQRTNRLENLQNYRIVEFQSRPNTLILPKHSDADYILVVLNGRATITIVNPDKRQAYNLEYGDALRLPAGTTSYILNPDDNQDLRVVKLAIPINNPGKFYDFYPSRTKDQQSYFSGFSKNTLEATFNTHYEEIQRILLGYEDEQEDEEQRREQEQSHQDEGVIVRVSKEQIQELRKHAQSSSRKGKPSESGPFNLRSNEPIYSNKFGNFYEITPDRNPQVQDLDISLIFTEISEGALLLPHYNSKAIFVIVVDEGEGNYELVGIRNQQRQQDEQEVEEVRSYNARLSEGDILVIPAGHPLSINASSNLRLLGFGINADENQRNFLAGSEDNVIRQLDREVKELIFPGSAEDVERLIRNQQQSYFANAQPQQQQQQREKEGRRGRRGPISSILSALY

EC50: 180 nM
B1: Nb B66 (His- and HA-tagged) (VHH)
VHH: QVQLQESGGGLVQAGGSLRLSCAASGRTFSSYGIGWFRQAPGKEREFVASISWSGGSTYYADSVKGRFTISRDNAKNTVYLQMNSLKPEDTAVYYCAAVIEAIDFVPVEYDYWGQGTQVTVSS
notes: also called Nb66; source: E. coli WK6 (pMECS), periplasmic, purified (IMAC, SEC)

EC50: 31 nM
B2: Nb B165 (His- and HA-tagged) (VHH)
VHH: QVQLQESGGGLVQAGGSLRLSCAASTRTFSSDAMGWFRQAPGKEREFVAAISISTYYADSVKGRFTISRDNAKNTMYLQMNRLKPEDTAVYYCAVKPFYGGIRYPNEYPYWGQGTQVTVSS
notes: also called Nb165; source: E. coli WK6 (pMECS), periplasmic, purified (IMAC, SEC)

EC50: 45 nM
B3: Nb B163 (His- and HA-tagged) (VHH)
VHH: QVQLQESGGGLAQAGGSLTLSCAASGRTFSIPTMGWFRQAPGKEREFVAAIGRTTAYTGSVKGRFTISRDSAKNTVSLQMNSLNIEDTGVYYCASSQSPWSSPPLTENMYAYWGQGTQVTVSS
notes: also called Nb163; source: E. coli WK6 (pMECS), periplasmic, purified (IMAC, SEC)

EC50: 680 nM
B4: Nb B157 (His- and HA-tagged) (VHH)
VHH: QVQLQESGGGLVQAGGSLRLSCEASGRTNTKYAWGWFRQAPGKEREFVASINWSGTLINYADSVKGRFTISRDDAKNTVYLEMSSLRPEDTAVYSCAVRYYTGTYYYTTSPDNYKHWAQGTQVTVSS
notes: also called Nb157; source: E. coli WK6 (pMECS), periplasmic, purified (IMAC, SEC)

EC50: 1 nM
B5: Nb B83 (His- and HA-tagged) (VHH)
VHH: QVQLQESGGGLVQPGGSLRLSCAASGSIFSRNDMGWYRQAVGEARILVATITSGGVTTYADSVKGRFTISRDNAKNTVYLQMNSLKPEDTAVYYCNTLTNRRNAYWGQGTQVTVSS
notes: also called Nb83; B83HA; source: E. coli WK6 (pMECS), periplasmic, purified (IMAC, SEC)

EC50: 8 nM
B6: Nb B40 (His- and HA-tagged) (VHH)
VHH: QVQLQESGGGLVQAGESLRLSCATTEHANQMYAVGWFRQAPGKEREFVASINWSGTRTEHAESVKGRFTISKINPHDTVYLQMNSLKPEDTAVYACAARYYSGTYTKTDNSNDYDYWGQGTQVTVSS
notes: Detecting nanobody of the final sandwich ELISA; also called Nb40; B40HA; source: E. coli WK6 (pMECS), periplasmic, purified (IMAC, SEC)

EC50: 9 nM
B7: Nb B91 (His- and HA-tagged) (VHH)
VHH: QVQLQESGGGLVQAGDSLRLSCASSGRTFSSYGVGWFRQAPGKEREFVAAISWNGGSASYADSVKGRFTVSRDNAKNTVYLQMNSLQPEDTADYYCAAKVEALYGTDYFRDYDYWGQGTQVTVSS
notes: also called Nb91; source: E. coli WK6 (pMECS), periplasmic, purified (IMAC, SEC)

EC50: 325 nM
B8: Nb B69 (His- and HA-tagged) (VHH)
VHH: QVQLQESGGGLVQPGGSLRLSCVSSERTFSPYTMAWFRQAPGKERDFVADIRWGDGTTRYADSVKGRFTISRDNAKNTVFLQTNSLTPEDTAVYYCAHKTWYPRSFQAASYDFWGQGTQVTVSS
notes: also called Nb69; source: E. coli WK6 (pMECS), periplasmic, purified (IMAC, SEC)

EC50: 16 nM
B9: Nb B50 (His- and HA-tagged) (VHH)
VHH: QVQLQESGGGLVQAEGSLRLSCTVSGRTFSRDAMGWFRRPPGKEREFVAAISWNGASTSYADSVKGRFTVSRDNAKNTSLLQMNSLKPEDTAVYYCATYWSSAIPPLAAATSATYWGQGTQVTVSS
notes: also called Nb50; source: E. coli WK6 (pMECS), periplasmic, purified (IMAC, SEC)

EC50: 13 nM
B10: Nb B167 (His- and HA-tagged) (VHH)
VHH: QVQLQESGGGLVQAGGSLRLSCAASRRTSRNYDMTWFRQFPGTEREFVAFISWGGSRIYYADSVKGRFTISRDNAKDTVYLQMNSLKPEDTAVYYCAADPRLVRGRYESDYWGQGTQVTVSS
notes: also called Nb167; source: E. coli WK6 (pMECS), periplasmic, purified (IMAC, SEC)

EC50: 14 nM
B11: Nb B187 (His- and HA-tagged) (VHH)
VHH: QVQLQESGGGLVQAGGSLRLSCAASGRTFSGARMGWFRQAPGKEREFVAAIRWITGSTYYTDSVKGRFTISRDIAKNTQYLQMNSLKPEDTARYYCAAGEYYGGSYSDTEKYDYWGQGTQVTVSS
notes: From an immune alpaca library raised against crude lupine protein extract; also called Nb187; B187HA; source: E. coli WK6 (pMECS), periplasmic, purified (IMAC, SEC)

EC50: 24 nM
B12: Nb B42 (His- and HA-tagged) (VHH)
VHH: QVQLQESGGGLVQAGGSLRLSCAASGRTFSSYAMGWFRQAPGKEREFVAAISWSGGSTYYADSVKGRFTISRDNAKNTVYLQMNSLKPEDTAVYYCAVDQWILEVNAAFQADYWGQGTQVTVSS
notes: also called Nb42; source: E. coli WK6 (pMECS), periplasmic, purified (IMAC, SEC)
